Patent US20260008830A1

Assays:
Test in all cases: cell-based or functional assay
[1] = target: T1, IFN-gamma receptor on HEK-Dual cells (Human IFN-γ SEAP/Luciferase Reporter Cells, hkd-ifng)
T1 sequence (P15260 whole entry, looked up): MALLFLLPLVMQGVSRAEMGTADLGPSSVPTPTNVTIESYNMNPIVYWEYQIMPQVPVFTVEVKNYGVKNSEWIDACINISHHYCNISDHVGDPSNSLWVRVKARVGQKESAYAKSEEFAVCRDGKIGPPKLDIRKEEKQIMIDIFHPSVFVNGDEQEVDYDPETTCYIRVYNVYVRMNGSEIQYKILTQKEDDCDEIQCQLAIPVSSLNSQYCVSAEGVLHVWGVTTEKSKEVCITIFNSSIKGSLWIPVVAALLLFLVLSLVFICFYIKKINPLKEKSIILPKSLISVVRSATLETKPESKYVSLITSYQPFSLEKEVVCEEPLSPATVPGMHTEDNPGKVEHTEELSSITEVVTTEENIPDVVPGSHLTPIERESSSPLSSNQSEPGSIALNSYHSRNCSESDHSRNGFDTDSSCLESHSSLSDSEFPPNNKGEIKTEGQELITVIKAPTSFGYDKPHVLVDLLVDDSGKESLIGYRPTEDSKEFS
T1 sequence (P38484 whole entry, looked up): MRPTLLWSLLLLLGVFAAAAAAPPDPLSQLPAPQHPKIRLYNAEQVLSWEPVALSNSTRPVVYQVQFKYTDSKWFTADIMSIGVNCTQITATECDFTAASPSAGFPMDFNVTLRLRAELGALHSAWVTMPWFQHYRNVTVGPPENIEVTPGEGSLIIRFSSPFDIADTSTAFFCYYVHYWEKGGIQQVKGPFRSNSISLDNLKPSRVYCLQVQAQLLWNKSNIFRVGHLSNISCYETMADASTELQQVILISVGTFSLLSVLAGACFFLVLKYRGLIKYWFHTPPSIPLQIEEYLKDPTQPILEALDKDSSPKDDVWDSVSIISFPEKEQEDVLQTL

[2] = target: T2, IL-10 receptors R1 and R2 on HEK-Blue IL-10 reporter cells (UniProt Q13651)
T2 sequence (looked up) 1: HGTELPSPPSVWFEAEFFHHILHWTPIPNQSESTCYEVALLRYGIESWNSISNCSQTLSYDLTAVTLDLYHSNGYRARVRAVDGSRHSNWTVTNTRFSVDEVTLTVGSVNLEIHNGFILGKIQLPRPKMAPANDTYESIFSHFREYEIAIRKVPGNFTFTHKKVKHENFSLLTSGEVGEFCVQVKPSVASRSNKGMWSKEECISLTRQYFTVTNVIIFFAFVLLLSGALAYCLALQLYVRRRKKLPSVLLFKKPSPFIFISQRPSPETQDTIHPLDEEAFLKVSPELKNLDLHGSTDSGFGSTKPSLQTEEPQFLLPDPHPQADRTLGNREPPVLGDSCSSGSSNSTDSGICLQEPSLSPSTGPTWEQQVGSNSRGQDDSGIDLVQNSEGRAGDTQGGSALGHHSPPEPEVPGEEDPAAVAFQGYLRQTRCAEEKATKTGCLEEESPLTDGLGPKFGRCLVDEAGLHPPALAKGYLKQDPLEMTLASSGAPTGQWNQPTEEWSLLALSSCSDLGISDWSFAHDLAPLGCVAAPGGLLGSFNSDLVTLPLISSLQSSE
T2 sequence (looked up) 2: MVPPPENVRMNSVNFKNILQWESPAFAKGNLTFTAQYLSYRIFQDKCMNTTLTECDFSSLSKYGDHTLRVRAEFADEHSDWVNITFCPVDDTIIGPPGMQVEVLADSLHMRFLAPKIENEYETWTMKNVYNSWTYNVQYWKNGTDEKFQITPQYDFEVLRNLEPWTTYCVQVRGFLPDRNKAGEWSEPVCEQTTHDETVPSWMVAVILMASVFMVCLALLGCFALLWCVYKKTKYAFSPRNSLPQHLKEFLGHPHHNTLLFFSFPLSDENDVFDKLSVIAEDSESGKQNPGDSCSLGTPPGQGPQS

[3] = target: IL-22 receptors R1 and R2 on HEK-Blue IL-22 reporter cells (UniProt Q8N6P7)
Sequence of IL-22 receptors R1 and R2 on HEK-Blue IL-22 reporter cells (Q8N6P7 16-574 limits assumed): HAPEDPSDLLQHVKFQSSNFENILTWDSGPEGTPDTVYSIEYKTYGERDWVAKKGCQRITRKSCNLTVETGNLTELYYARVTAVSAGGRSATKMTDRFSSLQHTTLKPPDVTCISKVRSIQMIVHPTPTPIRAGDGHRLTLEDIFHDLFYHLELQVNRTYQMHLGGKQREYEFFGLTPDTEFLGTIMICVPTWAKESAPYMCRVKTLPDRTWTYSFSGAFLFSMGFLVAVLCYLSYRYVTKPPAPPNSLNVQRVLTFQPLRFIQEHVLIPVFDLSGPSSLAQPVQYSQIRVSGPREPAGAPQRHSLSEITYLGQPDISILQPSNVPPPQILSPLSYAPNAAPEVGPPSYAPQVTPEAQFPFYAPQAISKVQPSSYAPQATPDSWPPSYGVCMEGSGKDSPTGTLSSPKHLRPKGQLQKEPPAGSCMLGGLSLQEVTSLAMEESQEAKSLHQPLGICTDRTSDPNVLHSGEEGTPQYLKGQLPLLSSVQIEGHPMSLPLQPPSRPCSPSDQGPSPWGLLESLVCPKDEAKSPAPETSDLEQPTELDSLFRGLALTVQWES

[4] = target: IL-10 receptors R1 and R2 on HEK-Blue IL-10 reporter cells (UniProt Q13651); remark: listed apart in the source

Sequence of IL-10 ORF (WT human IL-10 expressed and secreted by M. pneumoniae) (P22301 other isoform, or with tags, fused parts or gaps limits assumed): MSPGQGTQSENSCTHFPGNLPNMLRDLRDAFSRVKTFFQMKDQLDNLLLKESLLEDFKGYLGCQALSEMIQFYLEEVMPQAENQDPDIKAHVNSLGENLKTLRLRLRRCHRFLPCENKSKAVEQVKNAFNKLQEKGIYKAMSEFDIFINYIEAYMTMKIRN
Sequence of IFNg WT (crystallised version of IFNg of PDB 6e3k) (P01579 other isoform, or with tags, fused parts or gaps limits assumed): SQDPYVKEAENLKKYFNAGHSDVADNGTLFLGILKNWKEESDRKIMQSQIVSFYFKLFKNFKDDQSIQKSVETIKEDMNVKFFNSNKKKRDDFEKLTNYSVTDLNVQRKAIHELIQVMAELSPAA

IFNg WT (crystallised version of IFNg of PDB 6e3k) (from UniProt P01579 24-147) (ligand)
EC50 (HEK Dual cells responding to IFNγ) [1]: 0.0866 nM

IL-10 ORF (WT human IL-10 expressed and secreted by M. pneumoniae) (from UniProt P22301 19-178) (ligand)
Apparent Kd (M) average (HEK-Blue IL-10 SEAP reporter, absorbance 630 nm, saturation binding fit) [2]: 1.98e-10 M
Fold change-apparentKD (against IL-10 ORF) [2]: 1 fold

WT22 (IL-22 WT used as reference for the interface mutants) (from UniProt Q9GZX6 34-179) (ligand)
app KD (HEK-Blue IL-22 reporter) [3]: 0.128 nM

hIL-10r (commercial recombinant human IL-10, #200-10, Peprotech) (from UniProt P22301 19-178) (ligand)
Apparent Kd (M) average (HEK-Blue IL-10 SEAP reporter, absorbance 630 nm, saturation binding fit) [4]: 4.61e-10 M
Fold change-apparentKD (against IL-10 ORF) [4]: 0.43 fold
